The data set concerns the molecule itself. Nature of the data set: native gel or EMSA. For orientation: In EMSA bound probe runs differently from free probe, usually more slowly.

One may read the stoichiometry N as a count of units in the complex or per binding partner.

B1: His-CRMP1 (collapsin response mediator protein 1, wild type) (natural protein)
chain: not shown
As to B1, the “stoichiometry N” value worked out at 4.

B2: His-CRMP1-D408V (natural protein)
chain: not shown
For B2, the “stoichiometry N” value is 4.

These data come from paper PMC4417118 (Genome Research, 2015).
